According to the supplement of paper PMC10724198:
± gives the standard deviation of the averaged measurements.

Legend:
Saccharomyces cerevisiae [1] = test: protein stability index of tFT-peptide fusion (C-terminal peptide) (PSI (0-1 scale)); higher = more stable (slower turnover); settings: genetic background: wild type; temperature: 30 C
Saccharomyces cerevisiae [2] = test: as above
Experimental: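 MPS profiling in S. cerevisiae of the tFT-X12 degron library: putative degron peptides plus stable controls, 12 aa, fused to the C-terminus of a sfGFP-mCherry timer. Cells are FACS-sorted into 8 mCherry/sfGFP bins and deep-sequenced. PSI runs from 0 (unstable) to 1 (stable). Backgrounds are wild type, das1Δ and doa10Δ at 30 °C, and wild type, das1Δ, cdc34-1 and cdc53-1 at 37 °C; 2-3 technical replicates each.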

[3] = genetic background: cdc34-1, temperature: 37 C
[4] = genetic background: cdc53-1, temperature: 37 C
[5] = genetic background: das1 deletion, temperature: 30 C
[6] = genetic background: das1 deletion, temperature: 37 C
[7] = genetic background: doa10 deletion, temperature: 30 C
[8] = genetic background: wild type, temperature: 30 C
[9] = genetic background: wild type, temperature: 37 C
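Further: PSI is a weighted mean of sequencing reads over stability bins, variants kept only with over 10 reads, mCherry proximal and sfGFP distal, peptide attached via GGGS linker.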

Sequence | protein stability index (Saccharomyces cerevisiae [1]) | protein stability index (Saccharomyces cerevisiae [2]; [3]) | protein stability index (Saccharomyces cerevisiae [2]; [4]) | protein stability index (Saccharomyces cerevisiae [2]; [5]) | protein stability index (Saccharomyces cerevisiae [2]; [6]) | protein stability index (Saccharomyces cerevisiae [2]; [7]) | protein stability index (Saccharomyces cerevisiae [2]; [8]) | protein stability index (Saccharomyces cerevisiae [2]; [9])
ISTRLALCACVC | 0.3273 ± 0.0032 | 0.184 ± 0.027 | 0.18 ± 0.0098 | 0.245 ± 0.019 | 0.3009 ± 0.0026 | 0.1999 ± 0.00074 | 0.208 ± 0.017 | 0.245 ± 0.0031
IVRDTECGIFYR | 0.731 ± 0.013 | 0.689 ± 0.05 | 0.75 ± 0.021 | 0.642 ± 0.016 | 0.735 ± 0.023 | 0.6512 ± 0.0058 | 0.6662 ± 0.006 | 0.723 ± 0.021
IVVWCGIRYSIR | 0.366 ± 0.032 | 0.328 ± 0.005 | 0.415 ± 0.055 | 0.263 ± 0.035 | 0.484 ± 0.0071 | 0.233 ± 0.013 | 0.262 ± 0.029 | 0.459 ± 0.0096
KKKEILVYIIQE | 0.484 ± 0.014 | 0.598 ± 0.036 | 0.612 ± 0.024 | 0.438 ± 0.029 | 0.578 ± 0.018 | 0.4732 ± 0.0016 | 0.512 ± 0.077 | 0.592 ± 0.02
KRLALVSCSICG | 0.4681 ± 0.0043 | 0.569 ± 0.03 | 0.6459 ± 0.003 | 0.446 ± 0.025 | 0.6239 ± 0.002 | 0.321 ± 0.028 | 0.351 ± 0.031 | 0.583 ± 0.0087
KRRKERIKIQQI | 0.261 ± 0.062 | 0.628 ± 0.037 | 0.715 ± 0.041 | 0.634 ± 0.073 | 0.737 ± 0.089 | 0.122 ± 0.0062 | 0.168 ± 0.046 | 0.28 ± 0.0094
KVGPVLLLCRRS | 0.445 ± 0.0089 | 0.6524 ± 0.00046 | 0.68 ± 0.023 | 0.637 ± 0.013 | 0.699 ± 0.0081 | 0.621 ± 0.019 | 0.628 ± 0.028 | 0.69 ± 0.0066
LAGSSSIVVVFG | 0.406 ± 0.018 | 0.445 ± 0.00068 | 0.469 ± 0.04 | 0.299 ± 0.038 | 0.527 ± 0.0056 | 0.2496 ± 0.0021 | 0.297 ± 0.049 | 0.496 ± 0.026
LAGVVWVVWCVG | 0.314 ± 0.06 | 0.17 ± 0.013 | 0.21 ± 0.0091 | 0.195 ± 0.031 | 0.385 ± 0.0088 | 0.1814 ± 0.00077 | 0.198 ± 0.03 | 0.367 ± 0.039
LALTRAAITHFF | 0.42 ± 0.026 | 0.649 ± 0.026 | 0.749 ± 0.013 | 0.652 ± 0.017 | 0.743 ± 0.039 | 0.213 ± 0.0085 | 0.253 ± 0.026 | 0.496 ± 0.021
LASLSRPFRAKF | 0.792 ± 0.0093 | 0.9674 ± 0.0085 | 0.949 ± 0.026 | 0.843 ± 0.011 | 0.914 ± 0.013 | 0.828 ± 0.029 | 0.8573 ± 0.0074 | 0.916 ± 0.012
LCFLVLLSLLLL | 0.528 ± 0.061 | 0.558 ± 0.047 | 0.581 ± 0.018 | 0.464 ± 0.029 | 0.5486 ± 0.0041 | 0.466 ± 0.022 | 0.456 ± 0.024 | 0.5057 ± 0.0012
LCHILAIIRRGA | 0.509 ± 0.05 | 0.691 ± 0.019 | 0.737 ± 0.032 | 0.596 ± 0.037 | 0.687 ± 0.013 | 0.429 ± 0.038 | 0.449 ± 0.05 | 0.624 ± 0.036
LCLRCQCIGTLS | 0.489 ± 0.0097 | 0.54 ± 0.017 | 0.587 ± 0.014 | 0.45 ± 0.023 | 0.557 ± 0.012 | 0.413 ± 0.016 | 0.435 ± 0.013 | 0.54 ± 0.0091
LCSLSIFVLFSC | 0.25 ± 0.005 | 0.192 ± 0.015 | 0.309 ± 0.027 | 0.209 ± 0.036 | 0.381 ± 0.0064 | 0.141 ± 0.0032 | 0.147 ± 0.017 | 0.272 ± 0.018
LCSVVIFCLVWG | 0.324 ± 0.022 | 0.117 ± 0.0048 | 0.263 ± 0.041 | 0.198 ± 0.03 | 0.343 ± 0.044 | 0.177 ± 0.008 | 0.182 ± 0.019 | 0.306 ± 0.0083
LCVWRRAIVWVG | 0.137 ± 0.039 | 0.363 ± 0.038 | 0.4573 ± 0.0015 | 0.352 ± 0.025 | 0.512 ± 0.007 | 0.0712 ± 0.011 | 0.0818 ± 0.021 | 0.0815 ± 0.0071
LFDYEAGEVMGG | 0.717 ± 0.017 | 0.729 ± 0.042 | 0.747 ± 0.03 | 0.661 ± 0.023 | 0.783 ± 0.017 | 0.656 ± 0.025 | 0.689 ± 0.022 | 0.779 ± 0.023
LFFFLVWSLSVF | 0.0314 ± 0.029 | 0.0262 ± 0.0035 | 0.0512 ± 0.0066 | 0.0353 ± 0.011 | 0.0635 ± 0.02 | 0.0187 ± 0.0092 | 0.0205 ± 0.0042 | 0.0395 ± 0.013
